The target in assay [1] is HLA-B*58:01. Kind of assay: IEDB peptide-MHC binding, purified MHC/competitive/fluorescence; ≥ and ≤ were set here for values at or beyond the usual limits of such assays. The following applies: source organism: Homo sapiens.
In assay [2] the target is HLA-B*51:01. Described as above. The following applies: source organism: Homo sapiens.
The target in a further assay is HLA-B*15:17. Kind of assay: IEDB peptide-MHC binding, purified MHC/competitive/fluorescence; filed as Kd, often an IC50 or EC50 that approximates it; ≥ and ≤ were set here for values at or beyond the usual limits of such assays.
The target of another assay is HLA-A*26:03. The assay is described as above. The following applies: source organism: Variola virus.
The next assay has as its target HLA-A*68:02. The assay is described as above. The following applies: source organism: Variola virus.
The target of another assay is HLA-A*02:01. The assay is described as above.
Assay [3] addresses HLA-B*57:01. Kind of assay: IEDB peptide-MHC binding, purified MHC/direct/fluorescence; filed as Kd, often an IC50 or EC50 that approximates it; ≥ and ≤ were set here for values at or beyond the usual limits of such assays.
The target in a further assay is HLA-A*01:01. Described as above. The following applies: source organism: Camelpox virus CMS.
The target in a further assay is HLA-B*48:01. The description is as above. The following applies: source organism: Camelpox virus CMS.
In the next assay the target is HLA-B*40:01. The description is as above. The following applies: source organism: Camelpox virus CMS.
The target of another assay is HLA-A*11:01. Described as above. The following applies: source organism: Camelpox virus CMS.
For a further assay, the target named is HLA-B*46:01. The assay is described as above. The following applies: source organism: Camelpox virus CMS.
The target of assay [4] is HLA-B*58:01. The description is as above. The following applies: source organism: Camelpox virus CMS.
For assay [5], the target named is HLA-A*03:01. Described as above.
Another assay concerns the target HLA-A*31:01. Described as above. The following applies: source organism: Camelpox virus CMS.
In a further assay the target is HLA-B*27:05. The assay is described as above. The following applies: source organism: Camelpox virus CMS.
Assay [6] concerns the target HLA-B*15:01. Described as above.
For assay [7], the target named is HLA-B*18:01. The description is as above. The following applies: source organism: Camelpox virus CMS.
The target of the next assay is HLA-A*69:01. The description is as above.
Assay [8] has as its target HLA-B*07:02. The assay is described as above. The following applies: source organism: Camelpox virus CMS.
Assay [9] deals with HLA-B*57:01. In words: IEDB peptide-MHC binding, purified MHC/competitive/fluorescence; filed as Kd, often an IC50 or EC50 that approximates it; ≥ and ≤ were set here for values at or beyond the usual limits of such assays. The following applies: source organism: Escherichia coli O139:H28 str. E24377A.
In another assay the target is HLA-A*26:01. The assay is described as above. The following applies: source organism: Escherichia coli O139:H28 str. E24377A.
A further assay deals with HLA-A*25:01. The description is as above. The following applies: source organism: Escherichia coli O139:H28 str. E24377A.
In the next assay the target is HLA-B*27:03. The description is as above. The following applies: source organism: Escherichia coli O139:H28 str. E24377A.
In assay [10] the target is HLA-A*80:01. Described as above. The following applies: source organism: Escherichia coli O139:H28 str. E24377A.
Assay [11] has as its target HLA-A*03:01. The assay is described as above. The following applies: source organism: Escherichia coli O139:H28 str. E24377A.
Assay [12] deals with HLA-A*02:12. The description is as above. The following applies: source organism: Escherichia coli O139:H28 str. E24377A.
The target of assay [13] is HLA-B*51:01. The assay is described as above.
In assay [14] the target is HLA-A*29:02. The description is as above. The following applies: source organism: Escherichia coli O139:H28 str. E24377A.
In assay [15] the target is HLA-B*15:01. The assay is described as above.
The target of assay [16] is HLA-B*18:01. The assay is described as above. The following applies: source organism: Escherichia coli O139:H28 str. E24377A.
The next assay has as its target HLA-B*39:01. Described as above. The following applies: source organism: Escherichia coli O139:H28 str. E24377A.
Assay [17] addresses HLA-A*80:01. In words: IEDB peptide-MHC binding, purified MHC/direct/fluorescence; filed as Kd, often an IC50 or EC50 that approximates it; ≥ and ≤ were set here for values at or beyond the usual limits of such assays. The following applies: source organism: Rickettsia typhi.
The next assay concerns the target HLA-A*24:03. The description is as above. The following applies: source organism: Rickettsia typhi.
In a further assay the target is HLA-A*02:50. The assay is described as above. The following applies: source organism: Rickettsia typhi.
Another assay has as its target HLA-A*30:01. The assay is described as above. The following applies: source organism: Rickettsia typhi.
Assay [18] deals with HLA-A*02:12. The assay is described as above. The following applies: source organism: Rickettsia typhi.
A further assay addresses HLA-A*02:10. The assay is described as above. The following applies: source organism: Rickettsia typhi.
The target of another assay is HLA-B*44:02. The description is as above. The following applies: source organism: Rickettsia typhi.
For assay [19], the target named is HLA-B*51:01. The description is as above. The following applies: source organism: Rickettsia typhi.
The target in assay [20] is HLA-A*29:02. Described as above. The following applies: source organism: Rickettsia typhi.
The next assay concerns the target HLA-A*02:11. Described as above. The following applies: source organism: Rickettsia typhi.
For the next assay, the target named is HLA-A*02:19. Described as above. The following applies: source organism: Rickettsia typhi.
The target in the next assay is HLA-A*23:01. The assay is described as above. The following applies: source organism: Rickettsia typhi.
A further assay concerns the target HLA-B*08:01. In words: IEDB peptide-MHC binding, purified MHC/competitive/fluorescence; filed as Kd, often an IC50 or EC50 that approximates it; ≥ and ≤ were set here for values at or beyond the usual limits of such assays. The following applies: source organism: Escherichia coli 536.
Assay [21] addresses HLA-B*07:02. Described as above. The following applies: source organism: Escherichia coli 536.
[22] abbreviates: source organism: Camelpox virus CMS.
Where [23] appears, read: source organism: Escherichia coli O139:H28 str. E24377A.
Where [24] appears, read: source organism: Rickettsia prowazekii.
The mark [25] stands for this setting: source organism: Escherichia coli 536.

pIC50, pKd: −log10 of the molar value.

Regarding MASSPTSI, the pIC50 (in general, the IC50 on a negative log10 scale, so that one unit is a factor of ten) with HLA-B*58:01 [1] was 6.01; with HLA-B*51:01 [2], 5.82.
Consider RVFDKADGK, for which the pKd (usually the negative decadic logarithm of the Kd, by convention in mol/L) with HLA-B*15:17 (source organism: Variola virus) is no more than 4.70; with HLA-A*26:03, no more than 4.70; in the assay with HLA-A*68:02 it was no more than 4.70; with HLA-A*02:01 (source organism: Variola virus), 5.98; in the assay with HLA-B*57:01 [3] (setting [22]), no more than 4.70; with HLA-A*01:01, no more than 4.70. Moreover, the pKd with HLA-B*48:01 was no more than 4.70; with HLA-B*40:01, no more than 4.70; in the assay with HLA-A*11:01, 6.90; in the assay with HLA-B*46:01 it was no more than 4.70; with HLA-B*58:01 [4] it was no more than 4.70; with HLA-A*03:01 [5] (setting [22]) it was 7.10. Moreover, the negative-log Kd (pKd) is 7.00 in the assay with HLA-A*31:01; no more than 4.70 with HLA-B*27:05; no more than 4.70 with HLA-B*15:01 [6] (setting [22]); no more than 4.70 with HLA-B*18:01 [7]; no more than 4.70 with HLA-A*69:01 (setting [22]); no more than 4.70 with HLA-B*07:02 [8].
On to SIPFGLMSA, for which the negative logarithm of the Kd (pKd) with HLA-B*57:01 [9], with HLA-A*26:01, in the assay with HLA-A*25:01, in the assay with HLA-B*27:03, with HLA-B*15:17 (setting [23]) and with HLA-A*80:01 [10] was no more than 4.70 each time. The pKd in the assay with HLA-A*03:01 [11] was no more than 4.70; with HLA-A*02:12 [12], 6.06; with HLA-A*02:01 (setting [23]) it was no more than 4.70; with HLA-B*51:01 [13] (setting [23]), no more than 4.70; with HLA-A*29:02 [14], no more than 4.70; in the assay with HLA-B*15:01 [15] (setting [23]) it was no more than 4.70. The pKd with HLA-B*18:01 [16] and in the assay with HLA-B*39:01 was no more than 4.70 each time.
With ELYPTVNTY, the pKd with HLA-B*57:01 [3] (source organism: Rickettsia typhi) is no more than 4.70; with HLA-A*80:01 [17], 5.35; with HLA-A*24:03 it was no more than 4.70; with HLA-A*02:50 it was no more than 4.70; with HLA-A*30:01 it was no more than 4.70; with HLA-A*03:01 [5] (setting [24]) it was 5.69. In addition, the pKd is no more than 4.70 with HLA-A*02:12 [18]; no more than 4.70 with HLA-A*02:10; no more than 4.70 in the assay with HLA-B*44:02; no more than 4.70 with HLA-B*51:01 [19]; 7.26 in the assay with HLA-A*29:02 [20]; no more than 4.70 with HLA-A*02:11. Besides, the pKd with HLA-B*15:01 [6] (setting [24]) was 6.64; with HLA-A*02:19, no more than 4.70; with HLA-A*69:01 (setting [24]), 4.84; with HLA-A*23:01, no more than 4.70.
Regarding SPLHVFVAV, the pKd with HLA-B*51:01 [13] (setting [25]) was 5.44; in the assay with HLA-B*15:01 [15] (setting [25]), no more than 4.70; with HLA-B*08:01 it was no more than 4.70; with HLA-B*07:02 [21], 7.29.

These data come from the Immune Epitope Database (IEDB).
